Data taken from patent US20180362652A1 (Biogen, published 2018).

Experiments:
[1] = target: T1, cynomolgus monkey BDCA2 (full-length, cell surface, E73 SNP form) (cynomolgus monkey, UniProt Q8WTT0 1-213 (human entry)); test: flow cytometry, whole blood pDCs, average of the twelve cynomolgus monkey donors
T1 construct: also called cyno BDCA2; surface cynomolgus monkey BDCA2
T1 chain: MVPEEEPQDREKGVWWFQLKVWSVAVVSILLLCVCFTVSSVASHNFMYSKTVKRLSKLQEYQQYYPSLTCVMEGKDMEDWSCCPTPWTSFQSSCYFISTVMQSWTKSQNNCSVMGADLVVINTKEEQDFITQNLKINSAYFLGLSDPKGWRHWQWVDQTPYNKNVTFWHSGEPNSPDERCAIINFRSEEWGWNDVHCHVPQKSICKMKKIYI
Procedure: (§1) The maximal values were taken from the values at the plateau in each assay (FIGS. 24 and 25).
(§2) MFI of PE was calculated with FlowJo software, and EC50 curves were generated in GraphPad Prism software.

[2] = target: T1, cynomolgus monkey BDCA2 (full-length, …); test: flow cytometry, whole blood pDCs of cynomolgus monkey donor 9, anti-human IgG PE secondary
Procedure: (§3) The MFI of PE was calculated in FlowJo software, and the percent of maximal binding, using the 40 μg/mL point as 100%, was computed. Each line represents one individual cynomolgus monkey, for a total of twelve cynomolgus monkeys, and graphed using GraphPad Prism software (four-parameter nonlinear regression curve fit of log-transformed data). Staining was repeated once a week for three weeks total.
as §1, §2

[3] = target: T2, human BDCA2 (full-length, cell surface) (human, UniProt Q8WTT0 1-213); test: flow cytometry, Alexa647-labelled BIIB059 on pDCs in human whole blood, on ice
T2 construct: also called huBDCA2; surface human BDCA2
T2 sequence: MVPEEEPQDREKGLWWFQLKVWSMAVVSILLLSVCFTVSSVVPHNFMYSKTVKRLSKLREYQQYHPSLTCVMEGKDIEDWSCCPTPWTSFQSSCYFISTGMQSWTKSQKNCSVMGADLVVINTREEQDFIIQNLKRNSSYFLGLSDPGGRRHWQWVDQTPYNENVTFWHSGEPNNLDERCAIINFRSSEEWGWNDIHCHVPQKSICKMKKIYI
Procedure: (§4) Cynomolgus monkey (Toxikon, Inc, Bedford, Mass.) or human peripheral blood (Biogen Idec) were collected in sodium heparin collection tubes and maintained at room temperature. A FACS staining antibody cocktail for identifying pDCs was added to each whole blood aliquot, incorporating CD20, CD14, CD123 and HLA-DR antibodies. […] Blood was incubated on ice, protected from light, for 30 min. […] After a 10-15 min. incubation at room temperature, samples were centrifuged at 1400 rpm for 5 min. The supernatant was decanted, leaving only a pellet of white blood cells (WBC). Each WBC pellet was washed with 5 mL of FACS buffer (1% BSA+0.002% NaAzide+1 mM CaCl₂+1 mM MgCl₂ in PBS), and centrifuged at 1400 rpm for 5 min. The supernatant was decanted, and each WBC pellet was resuspended in 200 μL of FACS buffer and transferred to a 96-well round bottom plate (Fisher Scientific). The plate was centrifuged at 1400 rpm for 5 min. The supernatant was dumped out of the plate, and each WBC pellet was washed with 200 μL of FACS buffer. The plate was centrifuged at 1400 rpm for 5 min, and the supernatant dumped out of the plate. Following washing (as above), WBCs were resuspended in 200 μL of 1% paraformaldehyde (PFA) in PBS, and fixed at 4° C. overnight, protected from light. […] Each WBC pellet was resuspended in 250 μL of FACS buffer and fluorescence intensity measured on a LSRII 4-color FACS machine. […]

[4] = target: T1, cynomolgus monkey BDCA2 (full-length, …); test: indirect method: flow cytometry of pDCs in cynomolgus whole blood, unlabelled BIIB059 titrated, free BDCA2 detected with the competitor BIIB059-A647 at 10 ug/mL [panel Cynomolgus monkey 6]
Procedure: (§5) The MFI of PE (open symbols, graphed on the left y-axis) or A647 (closed symbols, graphed on the right y-axis) was calculated in FlowJo software, and graphed using GraphPad Prism software (four-parameter nonlinear regression curve fit of log-transformed data).

[5] = target: T1, cynomolgus monkey BDCA2 (full-length, …); test: indirect method: flow cytometry of pDCs in cynomolgus whole blood, unlabelled BIIB059 titrated, free BDCA2 detected with the competitor BIIB059-A647 at 10 ug/mL [panel Cynomolgus monkey 8]
Procedure: as §5

[6] = target: T1, cynomolgus monkey BDCA2 (full-length, …); test: flow cytometry, Alexa647-labelled BIIB059 on pDCs in cynomolgus monkey whole blood, on ice
Procedure: as §4

[7] = target: T1, cynomolgus monkey BDCA2 (full-length, …); test: flow cytometry, whole blood pDCs of cynomolgus monkey donor 6, anti-human IgG PE secondary
Procedure: as §3, §1, §2

[8] = target: T1, cynomolgus monkey BDCA2 (full-length, …); test: flow cytometry, whole blood pDCs of cynomolgus monkey donor 11, anti-human IgG PE secondary
Procedure: as §1, §2

[9] = target: T1, cynomolgus monkey BDCA2 (full-length, …); test: indirect method: flow cytometry of pDCs in cynomolgus whole blood, unlabelled BIIB059 titrated, free BDCA2 detected with the competitor BIIB059-A647 at 10 ug/mL [panel Cynomolgus monkey 7]
Procedure: as §5

[10] = target: the molecule itself; test: AlphaScreen self-association assay: glutathione donor and acceptor beads carrying human FcRIIa (CD32a) GST; a signal needs antibody on both beads to associate with itself
Procedure: The AlphaScreen assay is a homogeneous proximity assay utilizing glutathione donor and acceptor beads (Perkin Elmer) to bind human FcRIIa (CD32a) GST. Various concentrations of the antibodies to be tested were added in this mixture. […] The level of emission detected by the Envision (Perkin Elmer) instrument is proportional to the degree of self-association.

B1: BIIB059 (antibody, human IgG1, kappa)
heavy: not shown
light: DIQLTQSPSSLSASVGDRVTITCKASQSVDYDGDSYMNWYQQKPGKAPKLLIYAASTLESGVPSRFSGSGSGTDFTLTISSLQPEDFATYYCQQANEDPRTFGQGTKVEIKRTVAAPSVFIFPPSDEQLKSGTASVVCLLNNFYPREAKVQWKVDNALQSGNSQESVTEQDSKDSTYSLSSTLTLSKADYEKHKVYACEVTHQGLSSPVTKSFNRGEC
notes: Humanized IgG1 kappa, mature chains; in some assays labelled with Alexa647; also called hu24F4 H4/L1 C95A; H4-L1-C95A (YL751/YL746)
- EC50 [1]: 1.2 µg/mL
- EC50 [2]: 1.4 µg/mL
- EC50 [3]: 1.44 µg/mL
- IC50 (read off the curve) [4]: ~1 µg/mL
- IC50 (read off the curve) [5]: ~2 µg/mL
- EC50 [6]: 0.944 µg/mL
- EC50 [7]: 1.3 µg/mL
- EC50 [8]: 1.4 µg/mL
- IC50 (read off the curve) [9]: ~2 µg/mL
- binding result [10]: no binding (tested: 250 µg/ml)
